Columns and labels:
[1] = molecular target: T1, LRRKtide peptide (RLGRDKYKTLRQIRQ)
T1 chain: RLGRDKYKTLRQIRQ

[2] = molecular target: T2, Nictide (RLGWWRFYTLRRARQGNTKQR)
T2 chain: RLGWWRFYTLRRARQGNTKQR

B1: GST-LRRK2[1326-2527, G2019S] (protein)
chain: LKKAVPYNRMKLMIVGNTGSGKTTLLQQLMKTKKSDLGMQSATVGIDVKDWPIQIRDKRKRDLVLNVWDFAGREEFYSTHPHFMTQRALYLAVYDLSKGQAEVDAMKPWLFNIKARASSSPVILVGTHLDVSDEKQRKACMSKITKELLNKRGFPAIRDYHFVNATEESDALAKLRKTIINESLNFKIRDQLVVGQLIPDCYVELEKIILSERKNVPIEFPVIDRKRLLQLVRENQLQLDENELPHAVHFLNESGVLLHFQDPALQLSDLYFVEPKWLCKIMAQILTVKVEGCPKHPKGIISRRDVEKFLSKKRKFPKNYMSQYFKLLEKFQIALPIGEEYLLVPSSLSDHRPVIELPHCENSEIIIRLYEMPYFPMGFWSRLINRLLEISPYMLSGRERALRPNRMYWRQGIYLNWSPEAYCLVGSEVLDNHPESFLKITVPSCRKGCILLGQVVDHIDSLMEEWFPGLLEIDICGEGETLLKKWALYSFNDGEEHQKILLDDLMKKAEEGDLLVNPDQPRLTIPISQIAPDLILADLPRNIMLNNDELEFEQAPEFLLGDGSFGSVYRAAYEGEEVAVKIFNKHTSLRLLRQELVVLCHLHHPSLISLLAAGIRPRMLVMELASKGSLDRLLQQDKASLTRTLQHRIALHVADGLRYLHSAMIIYRDLKPHNVLLFTLYPNAAIIAKIADYSIAQYCCRMGIKTSEGTPGFRAPEVARGNVIYNQQADVYSFGLLLYDILTTGGRIVEGLKFPNEFDELEIQGKLPDPVKEYGCAPWPMVEKLIKQCLKENPQERPTSAQVFDILNSAELVCLTRRILLPKNVIVECMVATHHNSRNASIWLGCGHTDRGQLSFLDLNTEGYTSEEVADSRILCLALVHLPVEKESWIVSGTQSGTLLVINTEDGKKRHTLEKMTDSVTCLYCNSFSKQSKQKNFLLVGTADGKLAIFEDKTVKLKGAAPLKILNIGNVSTPLMCLSESTNSTERNVMWGGCGTKIFSFSNDFTIQKLIETRTSQLFSYAAFSDSNIITVVVDTALYIAKQNSPVVEVWDKKTEKLCGLIDCVHFLREVMVKENKESKHKMSYSGRVKTLCLQKNTALWIGTGGGHILLLDLSTRRLIRVIYNFCNSVRVMMTAQLGSLKNVMLVLGYNRKNTEGTQKQKEIQSCLTVWDINLPHEVQNLEKHIEVRKELAEKMRRTSVE
[1]
  Km (phosphorylation of LRRKtide, P81 paper 32P assay): a similar Km of approximately 200 µM
[2]
  Km (concentration dependent phosphorylation of Nictide, 5 min reactions): Calculated Km values are 6 µM for Nictide

— US20090142784
